# ± gives the uncertainty stated by the source.
# Experiment: self-splicing fitness, log relative to wild type (ln ratio); higher = more splicing; Tetrahymena group I intron in knt gene, E. coli kanamycin selection, DiMSum; sequences stand for … in CUCUCU…GGAGGGAAAAGUUAUCAGGCAUGCACCUGGUAGCUAGUCUUUAAACCAAUAGAUUGCAUCGGUUUAAAAGGCAAGACCGUCAAAUUGCGGGAAAGGGGUCAACAGCCGUUCAGUACCAAGUCUCAGGGGAAACUUUGAGAUGGCCUUGCAAAGGGUAUGGUAAUAAGCUGACGGACAUGGUCCUAACCACGCAGCCAAGUCCUAAGUCAACAGAUCUUCUGUUGAUAUGGAUGCAGUUCACAGACUAAAUGUCGGUCGGGGAAGAUGUAUUCUUCUCAUAAGAUAUAGUCGGACCUCUCCUUAAUGGGAGCUAGCGGAUGAAGUGAUGCAACACUGGAGCCGCUGGGAACUAAUUUGUAUGCGAAAGUAUAUUGAUUAGUUUUGGAGUACUCGUGGUCG
# Method in brief: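 Library with all eight P1ex-region intron nucleotides randomised, intron inside the knt kanamycin-resistance gene on pET-22b(+), in E. coli BL21(DE3). Cells grew overnight at 37°C or 30°C on LB agar with or without 25 μg/mL kanamycin (plus 100 μg/mL carbenicillin, 50 μM IPTG, 0.2% rhamnose), in six replicate transformations. Pooled colonies were amplicon-sequenced on Illumina HiSeq 2500. DiMSum fitness is the error-weighted combination of wild-type-normalised replicate fold changes, kanamycin versus none.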
Sequence,self-splicing fitness (ln) (30 °C),self-splicing fitness (ln) (37 °C)
UUGUAGCAAUAUUACGGGAA,-2.13 ± 0.17,-1.32 ± 0.16
UUGUAGCAAUAUUACGGGAU,-4.01 ± 0.29,-2.78 ± 0.26
UUGUAGCAAUAUUACGGGUC,-3.03 ± 0.22,-2.83 ± 0.4
UUGUAGCAAUAUUACGUAGG,-2.12 ± 0.15,-1.04 ± 0.23
UUGUAGCAAUAUUACGUAUC,-4.12 ± 0.31,-3.03 ± 0.31
UUGUAGCAAUAUUACGUAUU,-3.29 ± 0.32,-2.45 ± 0.3
UUGUAGCAAUAUUACGUCAC,-2.56 ± 0.39,
UUGUAGCAAUAUUACGUCAU,-2.87 ± 0.18,-1.63 ± 0.13
UUGUAGCAAUAUUACGUCGG,-1.21 ± 0.094,-0.478 ± 0.093
UUGUAGCAAUAUUACGUGAC,-2.34 ± 0.26,-1.86 ± 0.33
UUGUAGCAAUAUUACGUGUA,-1.34 ± 0.12,-1.12 ± 0.15
UUGUAGCAAUAUUACGUGUU,-2.7 ± 0.25,-2.5 ± 0.24
UUGUAGCAAUAUUACGUUAG,-2.36 ± 0.25,-1.28 ± 0.21
UUGUAGCAAUAUUACGUUUA,-1.36 ± 0.16,-1.15 ± 0.17
UUUAAGCAAUAUUACGAAAG,-3.48 ± 0.32,-1.54 ± 0.25
UUUAAGCAAUAUUACGACGG,-0.639 ± 0.11,0.382 ± 0.13
UUUAAGCAAUAUUACGACUG,-0.203 ± 0.097,0.954 ± 0.12
UUUAAGCAAUAUUACGAGUG,-1.38 ± 0.14,-0.204 ± 0.13
UUUAAGCAAUAUUACGAUUA,-0.637 ± 0.1,-0.207 ± 0.11
UUUAAGCAAUAUUACGCAGG,-0.857 ± 0.14,-0.494 ± 0.2
UUUAAGCAAUAUUACGCCAG,-1.08 ± 0.15,-0.457 ± 0.2
UUUAAGCAAUAUUACGCCUA,-1.34 ± 0.21,0.351 ± 0.21
UUUAAGCAAUAUUACGCCUC,,-0.852 ± 0.36
UUUAAGCAAUAUUACGCGCA,-0.212 ± 0.11,0.0171 ± 0.15

Sequence,self-splicing fitness (ln) (30 °C),self-splicing fitness (ln) (37 °C)
UUUAAGCAAUAUUACGCUAA,-2.34 ± 0.17,-1.09 ± 0.19
UUUAAGCAAUAUUACGCUAU,-2.94 ± 0.27,-0.849 ± 0.21
UUUAAGCAAUAUUACGGAGU,-3.04 ± 0.39,-1.18 ± 0.43
UUUAAGCAAUAUUACGGAUA,-1.12 ± 0.18,-1.13 ± 0.18
UUUAAGCAAUAUUACGGCAG,-0.39 ± 0.098,0.179 ± 0.15
UUUAAGCAAUAUUACGGCCU,-1.69 ± 0.14,-0.999 ± 0.17
UUUAAGCAAUAUUACGGUCG,-0.794 ± 0.067,-0.269 ± 0.089
UUUAAGCAAUAUUACGUAUA,-1.95 ± 0.12,-1.54 ± 0.14
UUUAAGCAAUAUUACGUUUA,-2.69 ± 0.17,-2.1 ± 0.11
UUUCAGCAAUAUUACGAAGC,-0.935 ± 0.36,
UUUCAGCAAUAUUACGACUC,-2.82 ± 0.18,-0.13 ± 0.14
UUUCAGCAAUAUUACGAGCG,-0.768 ± 0.09,-0.289 ± 0.11
UUUCAGCAAUAUUACGAGUC,-3.12 ± 0.29,-1.97 ± 0.37
UUUCAGCAAUAUUACGAUUU,-1.34 ± 0.098,-0.0319 ± 0.12
UUUCAGCAAUAUUACGCGGU,-3.46 ± 0.25,-1.92 ± 0.2
UUUCAGCAAUAUUACGCGUC,-3.56 ± 0.15,-2.01 ± 0.14
UUUCAGCAAUAUUACGCGUU,-2.13 ± 0.21,-0.852 ± 0.17
UUUCAGCAAUAUUACGGCCA,-1.3 ± 0.19,-0.656 ± 0.11
UUUCAGCAAUAUUACGGCUU,-1.39 ± 0.13,-0.047 ± 0.13
UUUCAGCAAUAUUACGGUUG,-1.62 ± 0.091,-1.1 ± 0.12
UUUCAGCAAUAUUACGUGUG,-0.986 ± 0.067,-0.142 ± 0.075
UUUCAGCAAUAUUACGUUAC,-4.82 ± 0.28,-2.66 ± 0.16
UUUCAGCAAUAUUACGUUCA,-1.04 ± 0.13,-0.407 ± 0.15
UUUCAGCAAUAUUACGUUGG,-4.07 ± 0.18,-2.52 ± 0.2

# Reference: the supplement of paper PMC7877785
